The target in the data set is T1, YTHDC2 YTH domain WT (Mus musculus, UniProt B2RR83 1353-1436).
T1 sequence: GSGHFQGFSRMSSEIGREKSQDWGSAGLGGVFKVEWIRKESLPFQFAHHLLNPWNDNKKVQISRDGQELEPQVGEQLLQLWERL
The experiment in a line: fluorescence anisotropy. In general terms: Fluorescence polarisation rises when a labelled molecule tumbles more slowly, as on binding a larger partner.

For CCGGACUGU (ssRNA, m6A at position 5) [m6A-modified RNA probe], binding was put at a Kd of 4.1 ± 1.4 µM.

Turning to CCGGACUGU (ssRNA) [unmodified RNA probe], the Kd (usually the free concentration of one partner at which half of the binding sites on the other are occupied at equilibrium, for simple one-to-one binding) amounted to 54 ± 26 µM.

Source of the values: article PMC8887132.
